Measurements reported in the supplement of paper PMC10065799, “High-throughput profiling of sequence recognition by tyrosine kinases and SH2 domains using bacterial peptide display” (eLife, 2023).

Columns and labels:
c-Abl (mouse) = assay: phosphorylation enrichment, bacterial display (enrichment ratio); higher = better substrate or ligand; peptides without Tyr show the background
c-Src = assay: as above
Hck = Hck (UniProt P08631); assay: as above
Fer (mouse) = assay: as above
FGFR1 = FGFR1 (UniProt P11362); assay: as above
FGFR3 = FGFR3 (UniProt P22607); assay: as above
Jak2 = Jak2 (UniProt O60674); assay: as above
Fyn = Fyn (UniProt P06241); assay: as above
EPHB2 = EPHB2 (UniProt P29323); assay: as above
EPHB1 = EPHB1 (UniProt P54762); assay: as above
Fes = Fes (UniProt P07332); assay: as above
AncSZ = assay: as above
MERTK = MERTK (UniProt Q12866); assay: as above
SHP2-C SH2 = assay: SH2 binding enrichment of the phosphorylated peptide, bacterial display (enrichment ratio); higher = better substrate or ligand; peptides without Tyr show the background
c-Src SH2 = assay: as above
Grb2 SH2 = Grb2 SH2 (UniProt P62993); assay: as above
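For SH2 binding enrichment of the phosphorylated peptide, bacterial display in this document: peptide library displayed on the E. coli surface as eCPX fusions, selected cells deep-sequenced, score is each peptide's frequency after selection divided by its frequency in the input.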
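For phosphorylation enrichment, bacterial display in this document: 11-residue human phosphosite peptides and single-mutation variants displayed on the E. coli surface, counted by deep sequencing, each peptide's frequency after selection divided by its frequency in the unselected input library; frequency after pTyr selection over input frequency; kinase dosed for 20-30% of maximal phosphorylation in three min.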

Chain of Fes (P07332 whole entry, looked up): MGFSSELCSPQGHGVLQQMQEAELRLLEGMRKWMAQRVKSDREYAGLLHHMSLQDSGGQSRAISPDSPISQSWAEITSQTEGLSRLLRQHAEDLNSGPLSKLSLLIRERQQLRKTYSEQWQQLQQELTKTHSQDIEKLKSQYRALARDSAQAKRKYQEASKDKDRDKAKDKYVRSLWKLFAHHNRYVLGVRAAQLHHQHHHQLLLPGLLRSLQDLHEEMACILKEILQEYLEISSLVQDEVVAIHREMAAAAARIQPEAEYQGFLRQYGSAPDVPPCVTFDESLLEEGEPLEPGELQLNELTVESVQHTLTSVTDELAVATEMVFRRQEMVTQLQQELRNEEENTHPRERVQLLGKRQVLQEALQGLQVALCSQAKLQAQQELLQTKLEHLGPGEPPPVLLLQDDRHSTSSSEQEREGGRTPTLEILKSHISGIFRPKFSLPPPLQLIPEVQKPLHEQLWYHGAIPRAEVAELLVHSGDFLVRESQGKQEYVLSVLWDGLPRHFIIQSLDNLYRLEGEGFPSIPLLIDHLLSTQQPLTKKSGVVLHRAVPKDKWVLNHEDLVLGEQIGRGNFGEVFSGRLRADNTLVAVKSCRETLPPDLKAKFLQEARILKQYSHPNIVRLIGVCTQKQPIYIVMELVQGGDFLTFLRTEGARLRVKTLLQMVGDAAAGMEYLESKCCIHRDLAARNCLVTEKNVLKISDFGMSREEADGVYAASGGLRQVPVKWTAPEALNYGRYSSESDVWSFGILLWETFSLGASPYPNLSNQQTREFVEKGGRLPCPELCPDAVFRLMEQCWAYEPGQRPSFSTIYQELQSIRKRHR
Chain of FGFR1 (P11362 whole entry, looked up): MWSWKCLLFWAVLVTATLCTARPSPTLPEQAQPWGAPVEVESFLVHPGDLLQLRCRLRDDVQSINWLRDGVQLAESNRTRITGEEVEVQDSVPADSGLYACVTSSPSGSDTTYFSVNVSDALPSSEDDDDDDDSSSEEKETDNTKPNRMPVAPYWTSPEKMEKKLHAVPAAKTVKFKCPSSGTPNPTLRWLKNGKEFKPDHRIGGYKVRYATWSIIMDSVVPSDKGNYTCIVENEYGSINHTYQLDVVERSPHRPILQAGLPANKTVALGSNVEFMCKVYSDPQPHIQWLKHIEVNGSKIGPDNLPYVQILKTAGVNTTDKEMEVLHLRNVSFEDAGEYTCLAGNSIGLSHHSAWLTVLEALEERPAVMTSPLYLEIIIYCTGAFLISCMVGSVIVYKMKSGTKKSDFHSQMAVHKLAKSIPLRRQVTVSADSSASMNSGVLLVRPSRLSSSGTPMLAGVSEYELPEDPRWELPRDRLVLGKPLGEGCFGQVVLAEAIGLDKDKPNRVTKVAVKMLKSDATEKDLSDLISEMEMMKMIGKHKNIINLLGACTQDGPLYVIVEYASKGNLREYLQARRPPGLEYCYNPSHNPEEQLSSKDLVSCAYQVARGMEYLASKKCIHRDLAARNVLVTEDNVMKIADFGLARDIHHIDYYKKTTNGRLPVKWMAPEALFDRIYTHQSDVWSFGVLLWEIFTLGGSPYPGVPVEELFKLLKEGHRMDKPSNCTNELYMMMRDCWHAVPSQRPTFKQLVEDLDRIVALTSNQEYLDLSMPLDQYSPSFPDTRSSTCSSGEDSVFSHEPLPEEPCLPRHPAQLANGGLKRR
Chain of Jak2 (O60674 whole entry, looked up): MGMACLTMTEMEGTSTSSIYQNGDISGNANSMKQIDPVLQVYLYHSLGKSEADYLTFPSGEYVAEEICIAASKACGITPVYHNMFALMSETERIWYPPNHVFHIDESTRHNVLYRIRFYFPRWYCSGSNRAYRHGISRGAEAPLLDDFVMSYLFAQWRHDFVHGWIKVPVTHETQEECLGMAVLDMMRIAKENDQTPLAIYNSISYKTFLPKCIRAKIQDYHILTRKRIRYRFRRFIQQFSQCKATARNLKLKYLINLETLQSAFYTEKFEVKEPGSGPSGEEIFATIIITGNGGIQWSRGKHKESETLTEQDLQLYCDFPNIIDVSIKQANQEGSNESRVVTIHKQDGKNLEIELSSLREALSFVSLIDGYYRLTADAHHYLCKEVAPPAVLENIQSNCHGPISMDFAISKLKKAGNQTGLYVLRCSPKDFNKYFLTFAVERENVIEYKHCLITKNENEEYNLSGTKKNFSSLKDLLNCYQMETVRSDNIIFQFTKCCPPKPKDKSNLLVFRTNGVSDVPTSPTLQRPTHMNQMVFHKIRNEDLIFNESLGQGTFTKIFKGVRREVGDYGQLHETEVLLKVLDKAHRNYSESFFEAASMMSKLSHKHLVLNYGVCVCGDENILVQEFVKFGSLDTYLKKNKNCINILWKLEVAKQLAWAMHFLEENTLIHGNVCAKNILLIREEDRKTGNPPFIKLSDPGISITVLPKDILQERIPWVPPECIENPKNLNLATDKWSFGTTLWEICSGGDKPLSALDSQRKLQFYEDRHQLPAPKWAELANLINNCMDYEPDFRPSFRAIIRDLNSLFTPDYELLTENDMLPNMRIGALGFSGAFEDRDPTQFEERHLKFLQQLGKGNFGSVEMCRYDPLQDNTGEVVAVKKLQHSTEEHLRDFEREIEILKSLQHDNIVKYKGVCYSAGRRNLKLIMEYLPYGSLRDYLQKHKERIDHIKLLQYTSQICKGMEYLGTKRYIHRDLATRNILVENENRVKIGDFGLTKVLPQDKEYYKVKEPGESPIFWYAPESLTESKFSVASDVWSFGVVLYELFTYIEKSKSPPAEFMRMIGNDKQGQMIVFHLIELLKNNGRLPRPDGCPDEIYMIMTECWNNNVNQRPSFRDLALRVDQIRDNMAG
Chain of EPHB2 (P29323 whole entry, looked up): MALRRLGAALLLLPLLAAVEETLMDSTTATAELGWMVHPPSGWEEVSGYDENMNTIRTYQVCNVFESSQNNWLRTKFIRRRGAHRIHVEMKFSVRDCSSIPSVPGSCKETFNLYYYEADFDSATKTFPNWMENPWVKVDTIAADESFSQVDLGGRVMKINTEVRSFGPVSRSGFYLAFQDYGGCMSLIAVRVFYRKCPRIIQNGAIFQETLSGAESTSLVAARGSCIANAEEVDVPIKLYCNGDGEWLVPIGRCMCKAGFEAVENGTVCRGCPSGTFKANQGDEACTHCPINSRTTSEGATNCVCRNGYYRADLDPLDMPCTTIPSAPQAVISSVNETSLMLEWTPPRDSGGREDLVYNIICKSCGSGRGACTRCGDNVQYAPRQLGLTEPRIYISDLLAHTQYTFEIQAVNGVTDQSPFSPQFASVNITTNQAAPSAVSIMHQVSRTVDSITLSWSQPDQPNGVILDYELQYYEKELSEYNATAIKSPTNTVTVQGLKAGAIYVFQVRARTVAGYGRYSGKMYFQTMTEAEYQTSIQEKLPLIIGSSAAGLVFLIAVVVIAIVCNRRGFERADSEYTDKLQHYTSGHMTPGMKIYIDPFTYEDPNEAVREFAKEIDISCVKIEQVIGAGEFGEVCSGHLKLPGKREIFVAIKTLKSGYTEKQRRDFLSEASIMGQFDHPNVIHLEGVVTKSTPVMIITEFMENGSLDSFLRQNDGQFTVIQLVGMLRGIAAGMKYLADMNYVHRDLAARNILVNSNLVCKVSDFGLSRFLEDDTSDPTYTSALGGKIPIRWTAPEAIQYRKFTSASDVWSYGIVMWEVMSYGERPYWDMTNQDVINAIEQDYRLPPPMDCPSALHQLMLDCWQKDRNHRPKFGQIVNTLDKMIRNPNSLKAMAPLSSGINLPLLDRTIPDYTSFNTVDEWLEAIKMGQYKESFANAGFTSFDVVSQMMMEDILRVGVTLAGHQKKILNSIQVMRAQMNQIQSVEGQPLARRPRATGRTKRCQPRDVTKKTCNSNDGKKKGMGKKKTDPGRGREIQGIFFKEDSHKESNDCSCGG
Chain of Fyn (P06241 whole entry, looked up): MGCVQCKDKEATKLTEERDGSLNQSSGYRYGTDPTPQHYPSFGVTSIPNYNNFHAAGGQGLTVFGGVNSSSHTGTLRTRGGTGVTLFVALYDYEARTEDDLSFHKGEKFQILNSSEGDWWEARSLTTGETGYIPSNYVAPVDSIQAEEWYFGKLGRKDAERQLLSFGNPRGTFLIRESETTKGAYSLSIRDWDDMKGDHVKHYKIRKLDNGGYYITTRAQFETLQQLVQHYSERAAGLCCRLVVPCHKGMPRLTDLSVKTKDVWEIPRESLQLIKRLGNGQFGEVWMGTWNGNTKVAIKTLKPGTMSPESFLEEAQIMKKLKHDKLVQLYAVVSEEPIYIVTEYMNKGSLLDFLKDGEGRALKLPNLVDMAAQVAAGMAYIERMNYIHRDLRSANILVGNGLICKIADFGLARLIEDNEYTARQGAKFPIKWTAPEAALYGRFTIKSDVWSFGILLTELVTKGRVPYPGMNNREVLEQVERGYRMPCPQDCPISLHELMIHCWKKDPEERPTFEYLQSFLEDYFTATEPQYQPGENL
Chain of Hck (P08631 whole entry, looked up): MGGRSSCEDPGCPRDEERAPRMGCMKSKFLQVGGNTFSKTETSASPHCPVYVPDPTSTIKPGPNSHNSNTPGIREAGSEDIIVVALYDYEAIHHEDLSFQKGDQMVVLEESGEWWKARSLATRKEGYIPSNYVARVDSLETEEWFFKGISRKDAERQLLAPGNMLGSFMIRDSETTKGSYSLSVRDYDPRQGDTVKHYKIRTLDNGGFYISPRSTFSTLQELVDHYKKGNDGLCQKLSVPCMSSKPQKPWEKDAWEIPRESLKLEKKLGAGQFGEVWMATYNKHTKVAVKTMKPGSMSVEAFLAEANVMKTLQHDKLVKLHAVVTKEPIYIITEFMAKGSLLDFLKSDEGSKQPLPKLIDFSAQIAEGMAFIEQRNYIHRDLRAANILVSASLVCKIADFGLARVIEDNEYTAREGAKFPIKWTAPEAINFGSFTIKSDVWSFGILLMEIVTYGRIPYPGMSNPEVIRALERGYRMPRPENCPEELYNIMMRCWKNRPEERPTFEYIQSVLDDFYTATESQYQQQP

Sequence	SH2 binding enrichment (SHP2-C SH2)	SH2 binding enrichment (c-Src SH2)	SH2 binding enrichment (Grb2 SH2)	phosphorylation enrichment (c-Abl (mouse))	phosphorylation enrichment (c-Src)	phosphorylation enrichment (Hck)	phosphorylation enrichment (Fer (mouse))	phosphorylation enrichment (FGFR1)	phosphorylation enrichment (FGFR3)	phosphorylation enrichment (Jak2)	phosphorylation enrichment (Fyn)	phosphorylation enrichment (EPHB2)	phosphorylation enrichment (EPHB1)	phosphorylation enrichment (Fes)	phosphorylation enrichment (AncSZ)	phosphorylation enrichment (MERTK)
LTKQEYDEAGP [ACTA1_Y364_I359L]	0.874	8.7	1.08	1.39	0.996	1.15	0.638	0.811	1.07	1.62	0.809	1.23	0.696	1.71	2.03	0.817
RGDCMYASLLG [AR_Y269_P271S]	1.99	1.12	1.26	1.42	6	7.26	1.1	1.45	1.52	1.03	6.63	1.49	2.43	1.39	1.25	4.87
KPPPTYESEEE [BRD4_Y599]	0.719	0.728	0.977	1.18	0.767	0.641	0.753	0.618	0.775	1.39	0.664	0.711	0.653	1.88	1.65	0.552
CSKRFYQLTKL [AR_Y858_R855K]	0.874	0.777	1.08	0.587	0.449	0.424	0.492	0.401	0.556	0.706	0.454	0.44	0.545	0.888	0.75	0.47

Further lines, with some results ahead:

SH2 binding enrichment (SHP2-C SH2)	SH2 binding enrichment (c-Src SH2)	SH2 binding enrichment (Grb2 SH2)	Sequence	phosphorylation enrichment (c-Abl (mouse))	phosphorylation enrichment (c-Src)	phosphorylation enrichment (Hck)	phosphorylation enrichment (Fer (mouse))	phosphorylation enrichment (FGFR1)	phosphorylation enrichment (FGFR3)	phosphorylation enrichment (Jak2)	phosphorylation enrichment (Fyn)	phosphorylation enrichment (EPHB2)	phosphorylation enrichment (EPHB1)	phosphorylation enrichment (Fes)	phosphorylation enrichment (AncSZ)	phosphorylation enrichment (MERTK)
0.545	0.329	0.65	AVLQPYIFVAT [CFTR_Y1014]	0.978	0.701	0.586	0.674	1.2	1.41	1.84	0.606	0.804	0.84	1.69	1.56	0.55
0.826	0.528	0.736	AMGPVYQAAAL [HYOU1_Y421_A419P]	3.43	4.05	6.53	6.15	0.502	0.435	0.615	5.43	1.25	0.933	0.611	0.657	1.03
0.728	1.11	0.667	QISSNYDDAMQ [ZNF281_Y531]	0.569	0.57	0.499	0.533	0.434	0.703	0.939	0.348	0.771	0.665	0.978	0.962	0.845
0.469	0.444	0.723	SVTCTYSPGLN [TP53_Y126_A129G]	1.05	0.612	0.595	0.609	0.511	0.998	1.46	0.525	0.686	0.761	1.57	1.42	0.454
